{
  "source": "paper PMC4486171",
  "about": "“Ohr Protects Corynebacterium glutamicum against Organic Hydroperoxide Induced Oxidative Stress” (PLoS ONE, 2015)",
  "proteins": {"B1": {"name": "Ohr (Corynebacterium glutamicum ATCC 13032) (protein)", "chain": "MAIESIAYTSEALSTGSGRLGHVRSTDGALEFEMTPPKALGGSGEGTNPEQLFAVGYAACFHSAMHSVARSRKITLEDTAVGARVSIGPNGAGGFEIAVELEVSIPQLPQAEAQELADAAHQVCPYSNATRGNISVTVSVIDEEA", "notes": "N-terminal His6 tag (pET-28a), about 17 kDa on gel, E. coli BL21(DE3)"}},
  "substrate": "CC(C)(OO)c1ccccc1",
  "assay": "purified protein",
  "type": "biochemical, Corynebacterium glutamicum",
  "conditions": "40 μM Lpd, 5 μM SucB, 0.2 mM NADPH, 0.1 μM Ohr, 50 mM sodium phosphate pH 7.4, 50 mM NaCl, 1 mM DTPA, 37°C",
  "data": [
    {"protein": "B1", "values": [
      {"measurement": "Km", "result": "17.48 ± 0.78", "unit": "µM"},
      {"measurement": "kcat", "result": 5.48, "unit": "s⁻¹"},
      {"measurement": "kcat/Km", "result": "314300 ± 1420", "unit": "M⁻¹ s⁻¹"}
    ]}
  ]
}
